# Results from patent publication US20230256092A1, “COMBINED USE OF ANTI-CCR8 ANTIBODY AND CHEMOTHERAPEUTIC AGENT” (Shionogi & Co., Ltd., priority 2020, published 2023).
# Where a chain is given by its changes, count along the chain named. In names and notes the source's numbering stands.
# T1: mouse CCR8 (Mus musculus, UniProt P56484)
# T1 construct: expressed in transfected cells; host or cells: Expi293 cells, pcDNA 3.4 vector, transient
# T1 sequence (P56484 1-353): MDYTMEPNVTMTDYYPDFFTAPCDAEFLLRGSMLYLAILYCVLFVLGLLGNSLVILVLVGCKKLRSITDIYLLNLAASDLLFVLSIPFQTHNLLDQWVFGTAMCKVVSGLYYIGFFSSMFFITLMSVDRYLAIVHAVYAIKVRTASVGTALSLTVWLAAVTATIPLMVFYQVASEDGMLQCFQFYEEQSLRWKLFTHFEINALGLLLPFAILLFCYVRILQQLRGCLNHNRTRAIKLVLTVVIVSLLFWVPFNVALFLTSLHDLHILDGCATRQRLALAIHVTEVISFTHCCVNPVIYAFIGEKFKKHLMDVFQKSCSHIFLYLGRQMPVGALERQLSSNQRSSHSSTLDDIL
# T2: human CCR4 (Homo sapiens, UniProt P51679)
# T2 construct: expressed in transfected cells; host or cells: Expi293 cells, pcDNA 3.4 vector, transient
# T2 sequence (P51679 1-360): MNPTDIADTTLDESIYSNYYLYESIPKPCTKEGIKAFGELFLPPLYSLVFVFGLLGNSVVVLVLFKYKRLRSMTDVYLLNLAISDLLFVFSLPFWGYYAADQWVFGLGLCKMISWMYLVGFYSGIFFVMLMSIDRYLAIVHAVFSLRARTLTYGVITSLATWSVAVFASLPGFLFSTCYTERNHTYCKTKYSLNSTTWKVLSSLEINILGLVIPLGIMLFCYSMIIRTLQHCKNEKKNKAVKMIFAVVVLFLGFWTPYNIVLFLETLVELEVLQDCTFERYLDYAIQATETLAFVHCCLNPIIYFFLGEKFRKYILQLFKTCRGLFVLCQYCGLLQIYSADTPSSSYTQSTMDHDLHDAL
# B1: 1H4: mouse anti-human CCR8 neutralizing antibody; light chain SEQ ID NO: 29, heavy chain SEQ ID NO: 30 (antibody, V domains shown)
# VH: EVQLVESGGRLVQPKGSLKLSCAASGFTFNTYAMYWIRQAPGKGLEWVARIRSKSNNYATYYADSVKDRFTISRDDSQSMLYLQMNNLKTEDTAMYYCVRARFYYSDYGYAMDYWGQGTSVTVSS
# VL: DIVMTQAAPSVPVTPGESVSISCRSSKSLLHSNGNTYLYWFLQRPGQSPQLLIYRMSNLASGVPDRFSASGSGTAFTLRISRVEAEDVGVYYCMQHLEYPLTFGAGTKLELKR
# modifications: 1H4 VH; 1H4 VL
# B2: 8F7: mouse anti-human CCR8 neutralizing antibody; light chain SEQ ID NO: 33, heavy chain SEQ ID NO: 34 (antibody, V domains shown)
# VH: EVQLVESGGRLVQPKRSLKLSCAASGFTFNPYAMYWIRQAPGQGLEWVARIRSKSNNYATYYADSVKDRFTISRDDSQSMLYLQMNNLKTEDTAMYYCVRGHQGTMDYWGQGTSVTVSS
# VL: B1 VL with I53T, A69G, L101F, A105G, L111I
# modifications: 8F7 VH; 8F7 VL
# B3: 2C7: mouse anti-human CCR8 neutralizing antibody; light chain SEQ ID NO: 35, heavy chain SEQ ID NO: 36 (antibody, V domains shown)
# VH: QVQLKQSGPSLVQPSQSLSITCTVSGFSLTAYGVHWIRQSPGKGQEWLGVIWRGGSTDYNAAFMSRLTITKDNSKSQVFFKMNSLQADDTAIYYCAKKGGSYAMDYWGQGTSVTVSS
# VL: DVVLTQTPLSLPVSLGGQASISCRSSQSLVHSNGNTYLHWYLQKPGQSPKLLIYKVSNRFSGVPDRFSGSGSGTDFTLKISRVEAEDLGVYFCSQSTQVPLTFGAGTKLELKR
# modifications: 2C7 VH; 2C7 VL
# B4: 2-7B: rat anti-human CCR8 antibody; light chain SEQ ID NO: 37, heavy chain SEQ ID NO: 38 (antibody, V domains shown)
# VH: EVQLVESDGGLVQPGRSLKLSCAASGFTFSDYYMAWVRQAPTKGLEWVATITYDVYSTYYRDSVKGRFTISRDNAKSTLYLQMDSLRSEDTATYYCARHGGDGYNSGNWFAYWGQGTLVTVSS
# VL: DIVLTQSPALAVSLGQRATISCRASQSVSISRYNIMHWYQQKPGQQPKLLIYRASNLASGIPARFSGSGSGTDFTLTINPVQADDIATYYCQQSRESPPTFGGGTKLELKR
# modifications: 2-7B VH; 2-7B VL
# B5: h10A11 (IGKV4-1/IGHV3-73 D101E): humanized 10A11 heavy chain CDR point mutant (antibody, V domains shown)
# VL: DIVMTQSPDSLAVSLGERATINCRSSKSLLHSNGNTYLYWYQQKPGQPPKLLIYRMSNLASGVPDRFSGSGSGTDFTLTISSLQAEDVAVYYCMQHLEYPLTFGQGTKLEIKRT
# VH: EVQLVESGGGLVQPGGSLKLSCAASGFAFNTYALYWVRQASGKGLEWVGRIRSKSNNYATYYADSVKDRFTISRDDSKNTAYLQMNSLKTEDTAVYYCTRARFYYSDYGYAMEYWGQGTLVTVSS
# B6: h10A11 (IGKV4-1/IGHV3-73 Y35F): humanized 10A11 heavy chain CDR point mutant (antibody, V domains shown)
# VL: B5 VL
# VH: B5 VH with Y35F, E113D
# B7: h10A11 (IGKV4-1/IGHV3-73 T31A): humanized 10A11 heavy chain CDR point mutant (antibody, V domains shown)
# VL: B5 VL
# VH: B5 VH with T31A, E113D
# B8: h10A11 (IGKV4-1/IGHV3-73 L34I): humanized 10A11 heavy chain CDR point mutant (antibody, V domains shown)
# VL: B5 VL
# VH: B5 VH with L34I, E113D
# B9: h10A11 (IGKV4-1/IGHV3-73 Y102F): humanized 10A11 heavy chain CDR point mutant (antibody, V domains shown)
# VL: B5 VL
# VH: B5 VH with E113D, Y114F
# B10: h10A11 (IGKV4-1/IGHV3-73 Y32F): humanized 10A11 heavy chain CDR point mutant (antibody, V domains shown)
# VL: B5 VL
# VH: B5 VH with Y32F, E113D
# B11: h10A11 (IGKV4-1/IGHV3-73 A33V): humanized 10A11 heavy chain CDR point mutant (antibody, V domains shown)
# VL: B5 VL
# VH: B5 VH with A33V, E113D
# Assays:
# [1] = target: T3, hCCR8 (T11A) (Homo sapiens, UniProt P51685, T11A); experiment: Antigen-binding test, human CCR8 point mutant; conditions: in comparison to wild-type hCCR8
# T3 construct: expressed in transfected cells; host or cells: Expi293 cells (method similar to that for the wild type)
# Excerpt: (§1) Further, to analyze in more detail the N-terminal region that is an epitope region common to all clones having strong neutralization, the human CCR8 point mutants shown in Table 2 were produced. […] It is thus considered that the neutralizing antibodies recognize Y at position 17. In addition, although clone No. 8F7 is only shown in Table 2, plural other neutralizing antibodies had reduced binding activity to the mutant in which I at position 20 of human CCR8 is substituted with A (hCCR8 (I20A)). It is thus considered that some neutralizing antibodies have stereo-structural recognition to bind to isoleucine at position 20.
# [2] = target: T4, hCCR8 (L5A) (Homo sapiens, UniProt P51685, L5A); experiment: Antigen-binding test, human CCR8 point mutant; conditions: in comparison to wild-type hCCR8
# T4 construct: expressed in transfected cells; host or cells: Expi293 cells (method similar to that for the wild type)
# [3] = target: T5, loop2 hCCR4-hCCR8 (Homo sapiens, UniProt P51685, A175Y/D178R/F186K/F197L/F200L/G179N/I196V/K193T/K201E/L181T/L192T/M202I/N188S/N199S/Q173T/Q182Y/Q189L/Q190N/S176T/S185T/T191S/T198S/V174C/V180H/Y172S/Y184K); experiment: Antigen-binding test, chimera; conditions: 5, 0.5 and 0.05 ug/mL, in comparison to wild-type hCCR8
# T5 construct: expressed in transfected cells; host or cells: Expi293 cells (method similar to that for the wild type)
# [4] = target: T6, loop1 hCCR4-hCCR8 (Homo sapiens, UniProt P51685, L95A/L96A/M105L/T103L/V104G); experiment: Antigen-binding test, chimera; conditions: 5, 0.5 and 0.05 ug/mL, in comparison to wild-type hCCR8
# T6 construct: expressed in transfected cells; host or cells: Expi293 cells (method similar to that for the wild type)
# [5] = target: T7, hCCR8 (K35A) (Homo sapiens, UniProt P51685, K35A); experiment: Antigen-binding test, human CCR8 point mutant; set-up: key: an antibody having significantly reduced binding activity was indicated as A; an antibody having binding activity of the detection limit or less was indicated as x; The blank column means that it exhibits the same binding activity as the wild-type human CCR8 (hCCR8); conditions: in comparison to wild-type hCCR8
# T7 construct: expressed in transfected cells; host or cells: Expi293 cells (method similar to that for the wild type)
# Excerpt: as §1
# [6] = target: T1, mouse CCR8; experiment: Antigen-binding test on transiently expressing Expi293 cells; set-up: key: an antibody having significantly reduced binding activity was indicated as A; an antibody having binding activity of the detection limit or less was indicated as x; The blank column means that it exhibits the same binding activity as the wild-type human CCR8 (hCCR8); conditions: 5, 0.5 and 0.05 ug/mL, in comparison to wild-type hCCR8
# Excerpt: (§2) The gene encoding the full length of human CCR8 (UniProtKB/Swiss-Prot: P51685, SEQ ID NO: 1), the gene encoding the full length of human CCR4 (UniProtKB/Swiss-Prot: P51679, SEQ ID NO: 48) and the gene encoding the full length of mouse CCR8 (UniProtKB/Swiss-Prot: P56484, SEQ ID NO: 39) were cloned into pcDNA 3.4 vectors, respectively. These vectors were used for transfection to produce Expi293 cells transiently expressing human CCR8, human CCR4, or mouse CCR8. These cells were reacted with a dilution series of the purified antibodies of each clone, and the binding properties thereof were evaluated by detection with Alexa488-labeled anti-mouse IgG antibody (manufactured by Thermo Fisher Scientific). As a result, every antibody bound to human CCR8, but not to human CCR4 and mouse CCR8 at all.
# [7] = target: T2, human CCR4; experiment: as above; set-up: key: an antibody having significantly reduced binding activity was indicated as A; an antibody having binding activity of the detection limit or less was indicated as x; The blank column means that it exhibits the same binding activity as the wild-type human CCR8 (hCCR8); conditions: 5, 0.5 and 0.05 ug/mL, in comparison to wild-type hCCR8
# Excerpt: as §2
# [8] = target: T8, hCCR8 (I30A) (Homo sapiens, UniProt P51685, I30A); experiment: Antigen-binding test, human CCR8 point mutant; conditions: in comparison to wild-type hCCR8
# T8 construct: expressed in transfected cells; host or cells: Expi293 cells (method similar to that for the wild type)
# Excerpt: as §1
# [9] = target: T9, hCCR8 (I20A) (Homo sapiens, UniProt P51685, I20A); experiment: Antigen-binding test, human CCR8 point mutant; conditions: in comparison to wild-type hCCR8
# T9 construct: expressed in transfected cells; host or cells: Expi293 cells (method similar to that for the wild type)
# Excerpt: as §1
# [10] = test system: colon cancer-derived Colon26 cells; experiment: Example 11: hCCR8-KI (KI/KI) mice inoculated with Colon26 cells, oxaliplatin combination (Part 2); type: in vivo, mouse; conditions: as Example 6; 2-7B part: oxaliplatin 10, 14, 17 days, antibody 14, 17 days; 19D7 part: oxaliplatin 10, 14 days, antibody 14 days; combinations from 10 days; Student's T one-sided
# Description: The back of each hCCR8-KI (KI/KI) mouse (12 weeks old, female) prepared in Test Example 10 was intracutaneously inoculated with 3.5×10^5 colon cancer-derived Colon26 cells (50 uL).
# To an oxaliplatin single administration group, saline was intravenously administered 5 days after tumor inoculation, and oxaliplatin (trade name: ELPLAT, Yakult Honsha Company, Limited) at 5 mg/kg body weight was intravenously administered 3 hours after the administration of the saline (N=10). To an anti-mouse CCR8 antibody and oxaliplatin combined administration group, an anti-human CCR8 antibody at 15 mg/kg body weight was intravenously administered 5 days after tumor inoculation, and oxaliplatin at 5 mg/kg body weight was intravenously administered 3 hours after the administration of the anti-mouse CCR8 antibody (N=10). To a control group, saline was intravenously administered 5 days after tumor inoculation, and saline was intravenously administered 3 hours after the administration of the saline (N=10). […] Tumor volumes were measured every 1 to 3 days from 4 days after tumor inoculation (a day before antibody administration). The tumor volume (mm^3) was measured in long diameter (mm)×short diameter (mm)×short diameter (mm)/2, and a significant difference test based on a Mann-Whitney U method (significance level: P<0.05) was conducted. […]
# [11] = target: T10, human CCR8 (Homo sapiens, UniProt P51685); experiment: Neutralizing activity: inhibition of Ca2+ influx by 200 nM hCCL1 in human CCR8 expressing 293 cells (FLIPR), Test Example 6; type: cell-based; conditions: Table 9; WT IC50/mutant IC50; humanized 10A11 heavy chain CDR mutants, IGKV4-1/IGHV3-73
# T10 construct: expressed in transfected cells; host or cells: 293 cells
# Description: The antibody dilution diluted with a medium was added to human CCR8 expressing 293 cells in which a Ca^2+ indicator was incorporated beforehand, and Ca^2+ influx by addition of 200 nM hCCL1 (manufactured by BioLegend) was measured with FLIPR. […] The evaluation was performed at least three times, and IC50 was expressed as average±SD.
molecule,measurement,setting,value
B1,"binding activity, hCCR8 (T11A)",[1],Δ
same,"binding activity, hCCR8 (L5A)",[2],Δ
same,"binding activity, loop2 hCCR4-hCCR8",[3],Δ
same,"binding activity, loop1 hCCR4-hCCR8",[4],Δ
same,"binding activity, hCCR8 (K35A)",[5],x
same,"binding activity, mCCR8",[6],x
same,"binding activity, hCCR4",[7],x
B2,"binding activity, hCCR8 (I30A)",[8],Δ
same,"binding activity, hCCR8 (I20A)",[9],Δ
same,"binding activity, loop2 hCCR4-hCCR8",[3],Δ
same,"binding activity, hCCR8 (K35A)",[5],Δ
same,"binding activity, mCCR8",[6],x
same,"binding activity, hCCR4",[7],x
B3,"binding activity, mCCR8",[6],x
same,"binding activity, hCCR4",[7],x
B4,tumor volume as compared to the control group,[10],no significant decrease
B5,IC50 ratio,[11],n.d. (The n.d. (=not detectable) indicates that the IC50 value of the mutant is 10 nM or more)
B6,IC50 ratio,[11],n.d. (The n.d. (=not detectable) indicates that the IC50 value of the mutant is 10 nM or more)
B7,IC50 ratio,[11],0.17
B8,IC50 ratio,[11],0.43
B9,IC50 ratio,[11],0.99
B10,IC50 ratio,[11],0.44
B11,IC50 ratio,[11],n.d. (The n.d. (=not detectable) indicates that the IC50 value of the mutant is 10 nM or more)
